Test results reported in article PMC1635324 (Nucleic Acids Research, 2006).
Blank lines part the entries; values can stand above or below the binder they belong to.

Key:
[1] = target: T1, ribosomal protein L10 from Methanococcus thermolithotrophicus (Methanococcus thermolithotrophicus, UniProt O52705 1-338); assay: native gel or EMSA
T1 sequence (looked up): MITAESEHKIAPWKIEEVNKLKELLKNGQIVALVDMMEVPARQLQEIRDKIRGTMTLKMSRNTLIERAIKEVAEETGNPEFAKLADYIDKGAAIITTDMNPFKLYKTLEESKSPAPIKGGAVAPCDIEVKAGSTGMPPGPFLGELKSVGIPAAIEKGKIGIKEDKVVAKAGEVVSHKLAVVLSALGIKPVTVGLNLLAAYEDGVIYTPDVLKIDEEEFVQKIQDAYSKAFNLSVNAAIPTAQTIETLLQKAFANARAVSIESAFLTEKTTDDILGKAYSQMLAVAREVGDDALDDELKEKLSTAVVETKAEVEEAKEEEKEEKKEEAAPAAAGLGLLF

[2] = target: T1, ribosomal protein L10 from …; assay: SEC
[3] = target: T2, ribosomal protein L10 from Methanococcus vannielii (Methanococcus vannielii, UniProt P15826 1-336); assay: native gel or EMSA
T2 sequence (looked up): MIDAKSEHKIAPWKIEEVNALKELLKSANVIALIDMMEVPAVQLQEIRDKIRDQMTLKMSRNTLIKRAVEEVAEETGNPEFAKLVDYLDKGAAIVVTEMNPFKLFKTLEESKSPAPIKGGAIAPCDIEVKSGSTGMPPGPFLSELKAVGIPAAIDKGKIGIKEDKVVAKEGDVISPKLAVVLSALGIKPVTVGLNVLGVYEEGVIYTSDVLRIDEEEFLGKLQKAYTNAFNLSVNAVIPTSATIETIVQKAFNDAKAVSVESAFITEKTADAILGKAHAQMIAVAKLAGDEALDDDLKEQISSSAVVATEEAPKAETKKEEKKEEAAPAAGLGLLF

[4] = target: T2, ribosomal protein L10 from …; assay: SEC
[5] = target: T3, ribosomal protein L10 from Methanococcus jannaschii (Methanococcus jannaschii, UniProt P54049 1-338); assay: native gel or EMSA
T3 sequence (looked up): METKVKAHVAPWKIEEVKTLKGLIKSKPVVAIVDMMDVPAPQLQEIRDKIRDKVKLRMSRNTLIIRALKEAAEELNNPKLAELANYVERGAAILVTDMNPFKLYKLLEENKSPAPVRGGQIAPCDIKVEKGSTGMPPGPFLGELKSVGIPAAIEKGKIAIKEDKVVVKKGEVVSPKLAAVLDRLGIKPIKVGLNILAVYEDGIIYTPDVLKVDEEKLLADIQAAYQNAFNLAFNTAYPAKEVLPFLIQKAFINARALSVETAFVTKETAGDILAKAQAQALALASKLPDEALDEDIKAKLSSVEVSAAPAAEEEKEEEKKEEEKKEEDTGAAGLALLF

[6] = target: T4, ribosomal protein L10 from Thermus thermophilus (Thermus thermophilus, UniProt Q8VVE3 1-173); assay: SEC
T4 sequence (looked up): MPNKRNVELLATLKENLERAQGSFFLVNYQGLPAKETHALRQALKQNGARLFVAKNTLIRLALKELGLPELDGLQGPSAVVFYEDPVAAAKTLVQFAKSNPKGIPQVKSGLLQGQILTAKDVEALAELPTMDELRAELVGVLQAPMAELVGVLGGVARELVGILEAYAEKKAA

[7] = target: T5, ribosomal protein L10 from Sulfolobus solfataricus (Sulfolobus solfataricus, UniProt P96039 1-338); assay: native gel or EMSA
T5 sequence (looked up): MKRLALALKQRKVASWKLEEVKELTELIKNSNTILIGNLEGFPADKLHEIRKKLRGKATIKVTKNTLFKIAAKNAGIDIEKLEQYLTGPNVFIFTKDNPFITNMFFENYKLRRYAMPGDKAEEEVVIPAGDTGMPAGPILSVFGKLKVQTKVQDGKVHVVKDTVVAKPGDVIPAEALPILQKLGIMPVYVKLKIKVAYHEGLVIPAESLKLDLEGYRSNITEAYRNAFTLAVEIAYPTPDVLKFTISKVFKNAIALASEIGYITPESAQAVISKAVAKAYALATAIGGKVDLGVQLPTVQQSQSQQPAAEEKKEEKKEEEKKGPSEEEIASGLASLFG

[8] = target: T5, ribosomal protein L10 from Sulfolobus …; assay: SEC

B1: ribosomal protein L12 from Methanococcus thermolithotrophicus (natural protein, UniProt O52706 1-101, looked up)
chain: MEYIYASLLLHSAGKEITEDAVKAVLSAAGVEVEDARVKALVAALEGVDIEEAIEKAAMPVAAAAAPAAAPAEEPKEEKKEEKKEEDTTAAAAAGLGALFG
- stoichiometry N [1]: ~4 L12 per L10
- stoichiometry N [2]: 4 L12 per L10

B3: ribosomal protein L12 from Methanococcus jannaschii (natural protein, UniProt P54048 1-102, looked up)
chain: MEYIYAALLLHSAGKEITEDAIKAVLSAAGVEVDDARVKALVAGLEGVDIEEAIANAAMPVAAAPAAAAPAAAAEEKKEEEKKEEKKEEDTAAVAGLAALFG
- stoichiometry N [5]: ~4 L12 per L10

Second part, the binder after the results:

- stoichiometry N [3]: ~4 L12 per L10
- stoichiometry N [4]: 4 L12 per L10
B2: ribosomal protein L12 from Methanococcus vannielii (natural protein, UniProt P10623 1-99, looked up)
chain: MEYIYAALLLNSANKEVTEEAVKAVLVAGGIEANDARVKALVAALEGVDIAEAIAKAAIAPVAAAAPVAAAAAPAEVKKEEKKEDTTAAAAAGLGALFM

- stoichiometry N [6]: 6 L12 per L10
B4: ribosomal protein L12 from Thermus thermophilus (natural protein, UniProt Q8VVE2 1-125, looked up)
chain: MALDIERIKEELSQATVLELKQLIDALKEAWGVTAAAPVAVAAAPAAGAAAAPAEEKTEFDVILKEAGAKKLEVIKELRAITGLGLKEAKDLAEKGGPVKEGVSKQEAEEIKKKLEAVGAVVELK

- stoichiometry N [7]: ~4 L12 per L10
- stoichiometry N [8]: 4 L12 per L10
B5: ribosomal protein L12 from Sulfolobus solfataricus (natural protein, UniProt P96040 1-106, looked up)
chain: MEYIYASLLLHSAKKEISEDALKNVLTAAGISVDEVRLKAVVAALKEVNIDEVLKNAAAMPVAVAAQPQATQAQPAAEEKKEEKKEEEKKGPSEEEIASGLASLFG
